# Measured values published in PMC8490876, “Functional Characterization of a L-2-Haloacid Dehalogenase From Zobellia galactanivorans Dsij^T Suggests a Role in Haloacetic Acid Catabolism and a Wide Distribution in Marine Environments” (Frontiers in Microbiology, 2021).
# Molecular target: recombinant ZgHAD, L-2-haloacid dehalogenase of Zobellia galactanivorans Dsij^T (Zobellia galactanivorans Dsij^T)
# Assay: SEC; gel filtration on HiLoad 16/600 Superdex 200 pg after nickel affinity purification; oligomeric state of the recombinant protein in solution
substance,measurement,value
"recombinant ZgHAD, L-2-haloacid dehalogenase of Zobellia galactanivorans Dsij^T (enzyme)",stoichiometry N,2
